Test results from US9113649B2, “Food additive comprising an amidase for detoxifying ochratoxin” (DuPont Nutrition Biosciences ApS, priority 2010, dated 2015).

Experiments:
Assay type in all cases: biochemical
[1] = pH optimum of amidase 2 in degrading OTA; settings: 30° C., 60 min; followed by pH 6 and 8; pH 5 and 9
Protocol: The reaction mixture contained 5 μl amidase 2 mixture (a mixture of the intracellular fractions of transformant 3, 4, 7-8, 10-11 and 13-15) with a protein concentration of 155 μg protein/ml), 0.1 ml 67 mM phosphate buffer (pH3, 4, 5, 6, 7, 8 and 9), 25 μl OTA (1 μg/ml). The reaction was performed at 30° C. for 60 min and stopped by the addition of 0.13 ml acetonitrile containing 0.2% HAC. An injection volume of 10 μl was used for RP-HPLC analysis of remaining OTA after filtering.
Five microliters of enzyme solution were combined with […] OTA 1 μg/mL diluted in different buffers: 50 mM sodium acetate buffer (pH 4, 4.5, 5 and 5.5); 50 mM MES-NaOH buffer (pH 6, 6.5 and 7); 50 mM Tris-HCl buffer (pH 7.5, 8 and 8.5).

[2] = pH and temperature stability of amidase 2 at 70° C.; settings: between pH 6 and 9; pre-incubated 30 min; stability decreased with the decrease in pH
Protocol: The reaction mixture contained 5 μl amidase 2 mixture (155 μg protein/ml), 45 μl 67 mM phosphate buffer at either pH3, 4, 5, 6, 7, 8 or 9. The reaction mixes were incubated at 70° C. for 30 min, before 2 μl 0.5 mg/ml OTA in ethanol and 80 μl 0.2M Mops pH 7.0 were added and the samples incubated at 30° C. for 60 min. The reaction was stopped by adding 130 μl acetonitrile containing 0.2% HAC, filtered and analysed by RP-HPLC.
Further more the recombinant amidase 2 was quite stable at 70° C. between pH 6 and 9. The stability decreased with the decrease in pH (FIG. 13). Activity was assayed at pH 7.0 and 30° C. The pre-incubation mixture contained 5 μl amidase 2 mixture (155 μg protein/ml), 45 μl 67 mM phosphate buffer (pH3, 4, 5, 6, 7, 8 and 9). The samples were pre-incubated at 70° C. for 30 min. After cooling to 30° C., 2 μl 0.5 mg/ml OTA in ethanol and 80 μl 0.2M Mops-NaOH (pH 7.0) were added and the reaction incubated at 30° C. for 60 min. The reaction was stopped by adding 130 μl acetonitrile containing 0.2% HAC, filtered and injected on RP-HPLC with an injection of 5 μl to monitor the remaining OTA.

[3] = heat stability of amidase 2 at 80° C.; settings: 5-30 min pre-incubation at 80° C., pH7.0
Protocol: The pre-incubation mixture in a 1.5 ml ependorpf tube contained 5 μl of the amidase 2 mixture (155 μg protein/ml), and 45 μl 67 mM phosphate buffer pH7.0. The samples were pre-incubated at 80° C. for 0, 5, 10, 15, 20, 25 and 30 min. After cooling to 15° C., 50 μl 67 mM phosphate buffer and 25 μl OTA (1 μg/ml) were added to start the reaction this was incubated at 30° C. for 60 min, the reaction was stopped by the addition of 130 μl acetonitrile containing 0.2% HAC. An injection volume of 10 μl was used for RP-HPLC analysis of remaining OTA after filtering.
The reaction mixture of 5 μl enzyme plus 45 μl 68 mM sodium phosphate (pH7.0) was incubated at 80° C. for 0-30 min before adding another 50 μl the phosphate buffer and 25 μl 1 μg/ml OTA, and incubated at 30° C. for 60 min. The reaction was stopped by adding 130 μl acetonitrile containing 0.2% acetic acid (v/v). The reaction mixture was filtered and injected (10 μl) for HPLC analysis. Ctrl was control where no amidase was added.

[4] = degradation of OTA in DDGS by amidase 2 sig; settings: DDGS slurry pH 6.7; 800 ppb at start; 3.1 μg protein; 37° C., 22 hr
Protocol: For DDGS, 1 g was suspended in 10 ml water, pH adjusted to 6.7 with NaOH. To 210 μl of this slurry was added 8 μl OTA (25 μg/ml) and 20 μl amidase 2 sig (3.1 μg protein), mixed and incubated at 37° C. for 22 hr. The OTA concentration decreased from 800 ppb at start to 5 ppb at the end. OTA analysis by HPLC was described in the materials and methods section above.

[5] = sensitivity of OTA hydrolysis to CaCl2 and EDTA
Protocol: One protease inhibitor cocktail (PIC) tablet (Roche Applied Science, Mannhein, Germany) was dissolved in 1.5 mL. milliQ water to obtain a 7× stock solution. For formamidase inhibition assay, instead of 100 μL milliQ water normally employed, 20 μL of 7×PIC stock solution and 80 μL of milliQ water were mixed with other components listed in formamidase activity assay section. For OTA degrading activity, 35 μL 7×PIC solution were mixed with 210 μL OTA 1 μg/mL and 5 μL enzyme solution. […] For controls, inhibitor solution is replaced either by milliQ water for formamidase activity assay or MES-NaOH pH7 buffer for OTA degrading activity.
Also it is known that the OTA degrading activity in the Amano™ lipase product is sensitive to EDTA.
[…] The reaction was performed at 37° C. for 30 min and stopped by adding 150 μl acetonitrile containing 0.2% acetic acid. OTA and its product OT-alpha (=ODα) were analyzed on RP-HPLC on C18 column with an injection of 5 μl. Positive control (PC) contained no additives other than the buffer the amidase and OTA. Blank contained only buffer and OTA.

[6] = degradation of OTA in corn flour by amidase 2 sig; settings: 800 ppb at the start, 3.1 μg protein, 37° C., 22 hr
Protocol: For corn flour, 50 mg corn flour was added 210 μl water, 8 μl OTA (25 μg/ml) and 20 μl amidase 2 sig (3.1 μg protein), mixed and incubated at 37° C. for 22 hr. The OTA concentration decreased from 800 ppb at the start to 14 ppb at the end. OTA analysis by HPLC is described in the materials and methods section above.

B1: recombinant amidase 2: amidase 2 from transgenic A. niger intracellular preparation, a mixture of intracellular fractions of transformants 3, 4, 7-8, 10-11 and 13-15 (protein)
chain: MVRRIASATPMVQSPMSPLGTTYCVRPNPVSLNLQRRPLVIASTDEAKVTIIYAGLLIPGDGEPLRNAALVISDKIIAFVGSEADIPKKYLRSTQSTHRVPVLMPGLWDCHMHFGGDDDYYNDYTSGLATHPASSGARLARGCWEALQNGYTSYRDLAGYGCEVAKAINDGTIVGPNVYSSGAALSQTAGHGDIFALPAGEVLGSYGVMNPRPGYWGAGPLCIADGVEEVRRAVRLQIRRGAKVIKVMASGGVMSRDDNPNFAQFSPEELKVIVEEAARQNRIVSAHVHGKAGIMAAIKAGCKSLEHVSYADEEVWELMKEKGILYVATRSVIEIFLASNGEGLVKESWAKLQALADSHLKAYQGAIKAGVTIALGTDTAPGGPTALELQFAVERGGMTPLEAIKAATANAPLSVGPQAPLTGQLREGYEADVIALEENPLEDIKVFQEPKAVTHVWKGGKLFKGPGIGPWGEDARNPFL
modifications: Aspergillus niger
[1]
  pH of highest enzyme activity: 7.0 pH
[2]
  stability at 70° C.: quite stable
[3]
  activity remained after pre-incubation: more than 80%

B2: amidase 2 sig: full length 480 amino acid A. niger amidase 2 with N-terminal or signal sequence, MW about 51 kDa; intracellular fraction (protein)
chain: MVRRIASATPMVQSPMSPLGTTYCVRPNPVSLNLQRRPLVIASTDEAKVTIIYAGLLIPGDGEPLRNAALVISDKIIAFVGSEADIPKKYLRSTQSTHRVPVLMPGLWDCHMHFGGDDDYYNDYTSGLATHPASSGARLARGCWEALQNGYTSYRDLAGYGCEVAKAINDGTIVGPNVYSSGAALSQTAGHGDIFALPAGEVLGSYGVMNPRPGYWGAGPLCIADGVEEVRRAVRLQIRRGAKVIKVMASGGVMSRDDNPNFAQFSPEELKVIVEEAARQNRIVSAHVHGKAGIMAAIKAGCKSLEHVSYADEEVWELMKEKGILYVATRSVIEIFLASNGEGLVKESWAKLQALADSHLKAYQGAIKAGVTIALGTDTAPGGPTALELQFAVERGGMTPLEAIKAATANAPLSVGPQAPLTGQLREGYEADVIALEENPLEDIKVFQEPKAVTHVWKGGKLFKGPGIGPWGEDARNPFL
modifications: Aspergillus niger
notes: intracellular fraction
[4]
  OTA concentration at the end: 5 ppb
[5]; 8 mM CaCl2, intracellular fraction of transgenic A. niger
  inhibition by CaCl2: not appreciably inhibited
[5]; 20 mM CaCl2, 37° C., 30 min, pH7.0
  inhibition by CaCl2: no inhibition
[5]; 20 mM EDTA, 37° C., 30 min, pH7.0
  inhibition by EDTA: no inhibition
[6]
  OTA concentration at the end: 14 ppb
